For the assay, the target named is 160 kd cell surface receptor (human (endogenous in MDA.MB.231 and 184A1)). The experiment in a line: radioligand binding; competition: 5 nM 125I-labelled TAA.62(T) on MDA.MB.231 monolayers with or without unlabelled peptide (cells preincubated with the growth factors), 2 h at 4 C, EBSS with 20 mM Hepes pH 7.4 and 1% BSA; specific binding as % of control.
Consider “epidermal growth factor (from UniProt P01133 971-1023) (ligand)”, for which the specific binding of 125I-TAA.62(T) (% of control) is 102 % of control. Take “insulin-like growth factor (from UniProt P05019 49-118) (ligand)”: the specific binding of 125I-TAA.62(T) (% of control) is 97 % of control.

In the case of “transforming growth factor-alpha (from UniProt P01135 40-89) (ligand)”, the specific binding of 125I-TAA.62(T) (% of control) is 98 % of control. Regarding “transforming growth factor-beta (ligand)”, the specific binding of 125I-TAA.62(T) (% of control) was 95 % of control.

(Values after publication PMC1977871.)
